Experimental data reported in publication PMC8005443.

Columns and labels:
[1] = biological target: PI3Kα-RBD (Human PI3Kα residues 157–300) (human) (UniProt P42336); assay: ITC
[2] = biological target: PI3Kγ-RBD (residues 193–316) (human) (UniProt P48736); assay: ITC

Kd [1] [nM] | dH [1] [kcal/mol] | stoichiometry N [1] | Kd [2] [nM] | dH [2] [kcal/mol] | stoichiometry N [2] | Substance
4000 | -2.59 | 1.06 | 2600 | -2.97 | 0.91 | KRAS4B^Q61H (from UniProt P01116-2 1-169) (enzyme)
2300 | -3.82 | 1.07 | 2400 | -4.16 | 0.81 | KRAS4B^G12V (from UniProt P01116-2 1-169) (enzyme)
